{"source": "paper PMC6877644", "about": "“JASPer controls interphase histone H3S10 phosphorylation by chromosomal kinase JIL-1 in Drosophila”", "binders": {"B1": {"name": "40 bp dsDNA (end of 601 positioning sequence) (dsDNA)", "DNA 1": "CCTGGAGAATCCCGGTGCCGAGGCCGCTCAATTGGTCGTA", "DNA 2": "TACGACCAATTGAGCGGCCTCGGCACCGGGATTCTCCAGG"}}, "key": {"[1]": {"molecular_target": "T1, JIL-1 (Drosophila melanogaster, UniProt Q9V3I5 1-1207)", "T1 sequence": "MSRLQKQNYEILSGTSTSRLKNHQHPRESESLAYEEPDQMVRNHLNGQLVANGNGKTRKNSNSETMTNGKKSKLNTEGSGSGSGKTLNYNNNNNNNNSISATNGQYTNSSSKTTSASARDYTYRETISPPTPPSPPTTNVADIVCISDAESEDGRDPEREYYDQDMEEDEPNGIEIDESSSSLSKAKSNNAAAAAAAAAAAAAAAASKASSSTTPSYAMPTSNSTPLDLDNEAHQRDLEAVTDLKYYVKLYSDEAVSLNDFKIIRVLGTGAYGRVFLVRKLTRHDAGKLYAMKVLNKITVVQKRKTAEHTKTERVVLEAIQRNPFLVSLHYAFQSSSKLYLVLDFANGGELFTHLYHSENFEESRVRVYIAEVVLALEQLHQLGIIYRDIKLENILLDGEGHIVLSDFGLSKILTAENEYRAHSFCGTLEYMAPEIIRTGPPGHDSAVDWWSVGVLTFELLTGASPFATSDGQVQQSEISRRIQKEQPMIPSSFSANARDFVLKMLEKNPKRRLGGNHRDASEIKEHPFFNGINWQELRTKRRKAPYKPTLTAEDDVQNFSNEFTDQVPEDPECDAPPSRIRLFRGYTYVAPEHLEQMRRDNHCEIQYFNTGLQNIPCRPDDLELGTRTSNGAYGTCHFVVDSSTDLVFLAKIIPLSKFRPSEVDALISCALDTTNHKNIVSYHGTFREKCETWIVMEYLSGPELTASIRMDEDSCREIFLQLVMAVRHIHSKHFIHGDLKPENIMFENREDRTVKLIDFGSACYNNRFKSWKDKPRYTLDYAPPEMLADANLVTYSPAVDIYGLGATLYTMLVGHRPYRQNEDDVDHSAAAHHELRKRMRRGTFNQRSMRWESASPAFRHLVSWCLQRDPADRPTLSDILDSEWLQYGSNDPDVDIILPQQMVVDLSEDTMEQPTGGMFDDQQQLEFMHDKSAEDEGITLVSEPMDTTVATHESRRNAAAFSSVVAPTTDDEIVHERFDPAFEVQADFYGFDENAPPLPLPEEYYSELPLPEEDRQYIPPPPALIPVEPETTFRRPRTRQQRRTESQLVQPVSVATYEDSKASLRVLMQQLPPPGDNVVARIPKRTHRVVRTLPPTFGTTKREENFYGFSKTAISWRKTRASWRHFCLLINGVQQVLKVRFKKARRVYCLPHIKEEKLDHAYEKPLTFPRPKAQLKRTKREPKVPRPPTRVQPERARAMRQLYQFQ", "test": "EMSA; 70 nM DNA; DNA EMSA: 50 mM HEPES pH 7.6, 50 mM NaCl, 10% glycerol, 2 mM MgCl2, 10% BSA, RT 10 min; RNA EMSA: 25 mM HEPES pH 7.6, 100 mM KCl, 3 mM MgCl2, 1 mM DTT, 5% glycerol, 100 ug/mL yeast tRNA, 20 C 15 min; nucleosome pull-down: 20 mM Tris/Cl pH 7.5, 50 mM NaCl, 5 mM EDTA, 0.1% Tween 20, 4 C 4 h", "conditions": "protein: recombinant; tags: N-terminal FLAG; label: Cy5; blunt"}, "[2]": {"molecular_target": "T2, JASPer (Drosophila melanogaster, UniProt Q9VAA9 1-475)", "T2 sequence": "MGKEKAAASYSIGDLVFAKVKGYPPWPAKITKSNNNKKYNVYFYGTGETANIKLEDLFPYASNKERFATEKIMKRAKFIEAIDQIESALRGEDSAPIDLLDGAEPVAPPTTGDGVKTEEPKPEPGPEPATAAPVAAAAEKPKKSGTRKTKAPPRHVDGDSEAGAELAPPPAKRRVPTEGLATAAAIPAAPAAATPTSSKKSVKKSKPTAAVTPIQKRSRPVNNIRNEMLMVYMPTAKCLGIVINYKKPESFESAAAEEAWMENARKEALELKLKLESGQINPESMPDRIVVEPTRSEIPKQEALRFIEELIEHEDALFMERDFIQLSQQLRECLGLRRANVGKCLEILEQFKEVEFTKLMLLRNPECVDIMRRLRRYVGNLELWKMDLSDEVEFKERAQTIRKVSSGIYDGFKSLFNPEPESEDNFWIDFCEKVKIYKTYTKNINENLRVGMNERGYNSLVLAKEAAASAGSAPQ", "test": "EMSA; 70 nM DNA; 9-fold molar excess of JASPer shifts all DNA; at least three retarded bands; DNA EMSA: 50 mM HEPES pH 7.6, 50 mM NaCl, 10% glycerol, 2 mM MgCl2, 10% BSA, RT 10 min; RNA EMSA: 25 mM HEPES pH 7.6, 100 mM KCl, 3 mM MgCl2, 1 mM DTT, 5% glycerol, 100 ug/mL yeast tRNA, 20 C 15 min; nucleosome pull-down: 20 mM Tris/Cl pH 7.5, 50 mM NaCl, 5 mM EDTA, 0.1% Tween 20, 4 C 4 h", "conditions": "protein: recombinant; tags: C-terminal FLAG; label: Cy5; blunt"}}, "data": [{"binder": "B1", "values": [{"measurement": "binding result", "setting": "[1]", "value": "no binding"}, {"measurement": "binding result", "setting": "[2]", "value": "binds"}]}]}
